{"source": "patent US9499823B2", "about": "“Constructs expressing chimeric receptors and use thereof for the controlled activation of defence response to pathogens in plants” (priority 2009, dated 2016)", "key": {"[1]": {"tested_on": "Agrobacterium tumefaciens GV3101", "assay": "Growth of Agrobacterium in N. tabacum tissues transiently expressing receptor proteins", "format": "in vivo", "settings": "24 h after inoculation, tobacco tissues expressing the receptor, p<0.005", "experimental": "F) Growth of Agrobacterium in N. tabacum tissues transiently expressing receptor proteins. Tobacco leaves were infiltrated with Agrobacterium expressing the indicated receptors and the number of Agrobacterium colony-forming units (c.f.u.) in the tissues was analyzed soon after infiltration (white bars) and 24 h (gray bars). EFR and eJMC were used as positive and negative controls, respectively. For each receptor, three samples were analyzed in five independent experiments. *, p<0.005.\n(§1) (A) Growth of A. tumefaciens in N. tabacum tissues transiently expressing receptor proteins. Tobacco leaves were infiltrated with Agrobacterium carrying the indicated receptor constructs and the number of Agrobacterium colony-forming units (c.f.u.) in the tissues was analyzed immediately after infiltration (white bars) and after 24 h (gray bars). EFR and eJMC were used as positive and negative controls, respectively. For each receptor, three samples were analyzed in five independent experiments. Asterisks indicate statistically significant differences against control (Col-0 for WAK1 plants and Col-0 efr for WEG and EWAK plants). (B) Lesion development in Arabidopsis wild type (Col-0) and mutant Col-0 efr plants and in transgenic plants expressing WAK1, WEG and EWAK plants inoculated with B. cinerea at 48 h post-inoculation. Values are means±s.e.m. of at least 16 lesions. The same experiment was performed in a second independent transgenic line expressing WAK1 with similar results. Asterisks indicate statistically significant differences against control (Col-0 for WAK1 plants and Col-0 efr for WEG and EWAK plants).\n(§2) Agrobacterium tumefaciens GV3101 strain infections was performed as described in Katagiri et al., (2002) and using a concentration of Agrobacterium corresponding at an OD600 of 1.0 in 10 mM MgCl2 and 600 μM acetosyringone. After 24 h of infiltration, serial dilution of Agrobacterium colonies were deposited on LB agar supplemented with gentamycin and rifampicin and grown for 2-3 days at 28° C. in the dark. At least 5 independent plants and 3 different leaves by plant, were used per experiment. Pectobacterium carotovorum subsp. carotovorum infections Pectobacterium carotovorum subsp. carotovorum (formely Erwinia carotovora; Gardan et al., 2003) (strain DMSZ 30169) was obtained from DSMZ GmbH (Germany). A liquid colture using 10 ml LB medium was prepared. After 16 h of growth at 28° C. on rotary shaker at 250 rpm, bacterial cells were harvested by centrifugation and the pellet was resuspended in 50 mM potassium phosphate buffer pH 7.0 corresponding to 5×10^7 CFU/ml."}, "[2]": {"tested_on": "Pseudomonas syringae DC3000", "assay": "Pseudomonas DC3000 infection of Arabidopsis Ws-0 plants by spraying", "format": "in vivo", "settings": "transgenic Ws-0 plants vs Ws-0 wild type, 4 days post infection", "source_text": "C) Pseudomonas DC3000 infections. (Left Panel) Symptoms disease of wild type and transformed plants after 4 days post infection. (Right panel) Growth of Pseudomonas syringae DC3000 after 4 day post infection. ***, p<0.005.\nThe authors therefore infected A. thaliana plants by spraying Pst DC3000 bacteria onto leaf surfaces. […] Higher resistance of eJMC plants, compared to Ws-0 wild-type plants, was found in all of three independent experiments."}, "[3]": {"tested_on": "oxidative burst in tobacco leaves", "assay": "Oxidative burst, luminol-dependent photon counting in agroinfiltrated tobacco leaf slices", "format": "cell-based, Nicotiana tabacum", "settings": "10 μM elfl8, after 15 min", "experimental": "D) Oxidative burst in tobacco leaves transiently expressing eJMC, EFR and EWAK. Photon counting was realized using tobacco leaves slices in a solution of luminol and peroxidase, during treatment with 10 μM elfl8. eJMC- and EFR-expressing explants were used as a negative and a positive control, respectively. Experiment was repeated at least 6 times on two independent replicated.\n(C) Oxidative burst in agroinfiltrated tobacco leaves expressing EWAK. Leaves expressing eJMC and EFR were used as a negative and a positive control, respectively. The burst was measured by photon counting using leaf slices incubated in a solution containing 10 μM elfl8, luminol and peroxidase. The experiment was repeated at least 6 times with two independent replicates.\n(§3) 3,3′-diaminobenzidine (DAB) staining, callose deposition and gene resistance analysis were assayed as described (Galletti et al., 2008). For measuring active oxygen species released by tobacco agroinfiltrated plants after elicitor treatment, the authors used a modified luminol-dependent assay (Gomez et al., 1999). Slices, corresponding to approximately 30 mg fresh weight, were transferred to assay tubes containing 1 μM flg22 or 10 μM elfl8 in aqueous solution supplied with 40 μM luminol (SIGMA). Chemo-luminescence was measured in a liquid scintillation counter (LS-6500, Beckman) after 5 and 15 min upon addition of elicitors."}, "[4]": {"tested_on": "transgenic Arabidopsis leaves", "assay": "Constitutive activation of defense responses (H2O2, callose) in transgenic plants", "format": "cell-based, Arabidopsis thaliana", "settings": "no elicitor", "experimental": "Leaves were stained with 3,3′-diaminobenzidine (DAB) for H2O2 visualization (upper panel) and with aniline blue for callose visualization (lower panel).\nas §3"}, "[5]": {"tested_on": "Pectobacterium carotovorum subsp. carotovorum", "assay": "Infection assay with Pectobacterium carotovorum on transgenic Arabidopsis leaves", "format": "in vivo", "settings": "transgenic Arabidopsis vs Col-0 or Col-0 efr, 24 h, 5×10^7 CFU/ml", "experimental": "Inoculum concentration was 5×10^7 CFU/ml). Values are means±SE of at least 16 lesions. Asterisks indicate statistically significant differences against control plants (Col-0 or Col-0 efr), according to Student's t test (*, p<0.0005).\nas §2, with “After 16 h of growth at 28° C. on rotary shaker at 250 rpm, bacterial cells were harvested by centrifugation and the pellet was resuspended in 50 mM potassium phosphate buffer pH 7.0 corresponding to 5×10^7 CFU/ml.” left out\nFor infection, fully developed leaves of 4 week old Arabidopsis plants were detached and placed in 0.8% agar Petri dishes. […] Symptoms were scored measuring the area of macerated tissue after 24 hour post inoculation at 22° C. and 12 h photoperiod. Area was measured by ImageJ software. […]"}, "[6]": {"tested_on": "ethylene biosynthesis in tobacco leaves", "assay": "Induction of ethylene biosynthesis in agroinfiltrated tobacco leaf explants", "format": "cell-based, Nicotiana tabacum", "settings": "elfl8 10 μM, 2 h", "experimental": "F) Induction of ethylene biosynthesis in agroinfiltrated tobacco leaves expressing the fluorescent EFR, FLS2, TMC, eJMC and eJMC^Y859A. NC: negative control, represented by agroinfiltrated leaf tissues expressing fluorescent EFR or FLS2 and elicited with flg22 or elfl8, respectively. Results are averages±standard error (n=3).\nExcised infiltrated leaf sectors were stimulated for 2 h with water or the elicitor ([…] and 100 μg/ml for OGs). Values are means±s.e.m. (N=3).\nE) Induction of ethylene biosynthesis in agroinfiltrated tobacco leaves expressing EFR, WAK1, WEG and EWAK. Each construct was stimulated for 2 h with elfl8 (10 μM) or OGs (100 μg/mL). NC: negative control, represented by agroinfiltrated leaf tissue expressing EFR or FLS2 when OGs or elfl8, respectively, were used for elicitation. Error bars indicate the standard error of three independent replicates.\n(A) Induction of ethylene biosynthesis in agroinfiltrated tobacco explants expressing EFR, WAK1, WEG and EWAK. […] Agroinfiltrated leaf tissues expressing EFR or WEG and elicited with OGs or elfl8 respectively, represented our negative control. Values are means±s.e.m. (N=3). (B) Elicitor-induced gene expression in untransformed Col-0 and Col-0 efr plants, and in transgenic Arabidopsis Col-0 efr plants stably expressing WEG. Accumulation of At3g22270 and At4g37640 transcripts was analysed by semi-quantitative PCR, using the UBQ5 gene for normalization. Adult leaves were syringe-infiltrated with water, OGs (25 μg/ml) or elfl8 (10 μM) for 3 h. The experiment was repeated three times with similar results. The same experiment was performed in a second independent transgenic line expressing WEG with similar results.\nApproximately 150 mg of tobacco agroinfiltrated leaf were cut in small slices and extensively washed with sterile distilled water. The explants were placed in sealed 10 mL flasks containing 2 mL of sterile water alone or supplemented with 100 mg L^−1 OGs, or 1 μM flg22 or 10 μM elfl8. 450 μl headspace samples were withdrawn from the vial after 2 h treatment and analyzed by gas chromatography-mass spectrometry using an Agilent 6850A gas chromatograph coupled to a 5973N quadrupole mass selective detector (Agilent Technologies, Palo Alto, Calif., USA). Chromatographic separations were carried out an HP Plot-Q fused-silica capillary column (30 m×0.32 mm i.d.) coated with polystyrene-divinylbenzene (film thickness 0.20 μm) as stationary phase. Injection mode: splitless at a temperature of 220° C. The initial temperature of the oven was held at 50° C. for 8 min then ramped to 220° C. at a rate of 15° C./min and held for 5 min. Helium was used as carrier gas at a constant flow of 1.0 ml/min. Mass spectra were collected both in full scan and in SIM mode monitoring the ions m/z m/z 26, m/z 27 and m/z 28 (ionization energy 70 eV; ion source 280° C.; ion source vacuum 10^−5 Torr)."}, "[7]": {"tested_on": "B. cinerea", "assay": "Lesion development in Arabidopsis plants inoculated with B. cinerea", "format": "in vivo", "settings": "transgenic Arabidopsis vs Col-0 or Col-0 efr, 48 h post-inoculation", "experimental": "as §1"}}, "note": "“Also recorded” adds a separate entry of the source.", "data": [{"molecule": "EWAK: chimera: EFR ectodomain fused to the TM-iJM-kinase portion of WAK1, GFP-fused (protein, left off: large carriers) RFSNETDMQALLEFKSQVSENNKREVLASWNHSSPFCNWIGVTCGRRRERVISLNLGGFKLTGVISPSIGNLSFLRLLNLADNSFGSTIPQKVGRLFRLQYLNMSYNLLEGRIPSSLSNCSRLSTVDLSSNHLGHGVPSELGSLSKLAILDLSKNNLTGNFPASLGNLTSLQKLDFAYNQMRGEIPDEVARLTQMVFFQIALNSFSGGFPPALYNISSLESLSLADNSFSGNLRADFGYLLPNLRRLLLGTNQFTGAIPKTLANISSLERFDISSNYLSGSIPLSFGKLRNLWWLGIRNNSLGNNSSSGLEFIGAVANCTQLEYLDVGYNRLGGELPASIANLSTTLTSLFLGQNLISGTIPHDIGNLVSLQELSLETNMLSGELPVSFGKLLNLQVVDLYSNAISGEIPSYFGNMTRLQKLHLNSNSFHGRIPQSLGRCRYLLDLWMDTNRLNGTIPQEILQIPSLAYIDLSNNFLTGHFPEEVGKLELLVGLGASYNKLSGKMPQAIGGCLSMEFLFMQGNSFDGAIPDISRLVSLKNVDFSNNNLSGRIPRYLASLPSLRNLNLSMNKFEGRVPTTGVFRNATAVSVFGNTNICGGVREMQLKPCIVQASPRKRKPLSVRKKVVSGWTTILLVTTIGFLVILLGVACIQQRMKHLKDTKLREQFFEQNGGGMLTQRLSGAGPSNVDVKIFTEDGMKKATNGYAESRILGQGGQGTVYKGILPDNSIVAIKKARLGDSSQVEQFINEVLVLSQINHRNVVKLLGCCLETEVPLLVYEFITNGTLFDHLHGSMIDSSLTWEHRLKIAIEVAGTLAYLHSSASIPIIHRDIKTANILLDVNLTAKVADFGASRLIPMDKEELETMVQGTLGYLDPEYYNTGLLNEKSDVYSFGVVLMELLSGQKALCFKRPQSSKHLVSYFATATKENRLDEIIGGEVMNEDNLKEIQEAARIAAECTRLMGEERPRMKEVAAKLEALRVEKTKHKWSDQYPEENEHLIGGHILSAQGETSSSIGYDSIKNVAILDIETGR", "values": [{"measurement": "decrease in the number of living Agrobacterium cells", "setting": "[1]", "value": 30, "unit": "%"}, {"measurement": "development of disease symptoms / susceptibility to Pst DC3000", "setting": "[2]", "value": "confers resistance"}, {"measurement": "oxidative burst upon treatment with elfl8", "setting": "[3]", "value": "produced an oxidative burst; also recorded: robust oxidative burst"}, {"measurement": "constitutive activation of defense responses (H2O2 levels, callose deposits)", "setting": "[4]", "value": "do not show constitutive activation of defense responses"}, {"measurement": "resistance to Pectobacterium carotovorum subsp. carotovorum", "setting": "[5]", "value": "increased resistance; also recorded: confers resistance"}, {"measurement": "ethylene accumulation upon stimulation with elfl8", "setting": "[6]", "value": "did not"}, {"measurement": "resistance to B. cinerea infection", "setting": "[7]", "value": "not"}]}]}
